Results on 1 molecule are retold here after patent US11739161B2, “Methods for treating and diagnosing prostate cancer” (Tufts Medical Center, Inc., priority 2017, dated 2023).

Holding throughout (type): cell-based, human
In one assay the test system is PC-3 cells. Briefly: RNASE4-induced cell proliferation (MTT assay). To be noted: exogenous RNASE4 1 μg/ml, PC-3, 2% FBS. As for the experimental part:
FIGS. 11A-F. RNASE4 induces PC-3 cell proliferation and phosphorylation of AKT and S6. (A) Exogenous RNASE4 (1 μg/ml) stimulates PC-3 cells proliferation in the presence of 2% FBS. Cell numbers were determined by MTT assay. (B) Time course of AKT and S6 phosphorylation of serum-starved PC-3 cells by RNASE4 (1 μg/ml). Left panels, immunoblots; right panels, quantification of p-AKT and p-S6 normalized to total AKT and S6 by Image J. (C) Effect of AKT inhibitor MK-2206, PI3K inhibitors LY294002 and Wortmannin, and mTOR inhibitor Rapamycin on RNASE4-induced PC-3 cell proliferation. Cells were pre-incubated with the inhibitors at the indicated concentrations for 1 hour prior to be stimulated by RNASE4 (1 μg/ml) for 3 days. Cell numbers were determined by MTT assay. (D) Human phospho-RTK antibody array analysis of starved PC-3 cells treated with or without 1 μg/ml RNASE4 for 5 minutes. (E) Time course of AXL phosphorylation stimulated by RNASE4 in PC-3 cells. Serum-starved PC-3 cells were treated with 1 μg/ml RNASE4 for different time. Cell lysates were analyzed for total AXL and phopho-AXL by immunoblotting. Left panels, immunoblots; right panel, quantification phospho-AXL normalized to total AXL by Image J analysis. (F) Effect of AXL inhibitor R428 on RNASE4-induced PC-3 cell proliferation. Serum-starved PC-3 cells were incubated with 1 or 3 μM R428 for 3 hours and then stimulated by 1 μg/ml of RNASE4 for 3 days. Cell numbers were determined by MTT assay. Data shown are means±SEM of a representative experiments in triplicates of 3 independent repeats. **P≤0.01 and ***P≤0.001, by unpaired two-tailed Student's t test.
(Formazan colour is commonly taken as a measure of viable cells.)

The subject of the next assay is DU145 cells. The assay is described as follows: RNASE4-induced cell proliferation (MTT assay). To be noted: exogenous RNASE4 1 μg/ml, DU145, 2% FBS. On the procedure:
FIGS. 10A-E. RNASE4 induces prostate cancer cell proliferation and phosphorylation of AKT and S6. (A and B) Exogenous RNASE4 (1 μg/ml) stimulates cell proliferation (A) and cell cycle progression (B) of DU145 cells cultured in the presence of 2% FBS. Cell numbers were determined by MTT assay. Cell cycle status was determined by flow cytometry after 24 hour incubation with RNASE4. (C) Time course of AKT and S6 phosphorylation of serum-starved DU145 cells by RNASE4 (1 μg/ml). Left panels, immunoblots; right panels, quantification of p-AKT and p-S6 normalized to total AKT and S6 by Image J analysis. […] Cells were pre-incubated with the inhibitors at the indicated concentrations for 1 hour prior to be stimulated by 1 μg/ml of RNASE4 for 5 minutes. Top panels, immunoblots; bottom panels, Image J quantification of p-AKT and p-S6 normalized to total AKT and S6. (E) Effect of AKT inhibitor MK-2206, PI3K inhibitors Wortmannin and LY294002, and mTOR inhibitor Rapamycin on RNASE4-induced cell proliferation. DU145 cells were serum-starved overnight, incubated with the inhibitors for 1 hour, and then treated with RNASE4 (1 μg/ml) for three days. Cell numbers were determined by MTT assay. Data shown are from a representative experiments in triplicates of 3 independent repeats. Error bars indicate SEM. **P≤0.01, by unpaired two-tailed Student's t test.
FIGS. 12A-F. RNASE4 induces AXL phosphorylation. (A) Human phospho-receptor tyrosine kinase (RTK) antibody array analysis. Serum-starved DU145 cells were treated with or without 1 μg/ml of RNASE4 for 5 minutes. […] Cell lysates were analyzed by antibodies against total AXL and phospho-AXL, with β-actin as the loading control. Left panels, immunoblots; right panel, Image J quantification of p-AXL normalized to total AXL. […] Left panels, immunoblots; right panel, quantification. […] Cell numbers were determined by MTT assay. […] Cell lysates were analyzed for AKT and P6 phosphorylation by immunoblotting. Top panels, immunoblots; bottom panels, quantification of phospho-AKT and phospho-S6 by Image J analyses normalized to total AKT and P6, respectively. […]

The test system of another assay is LNCaP cells. The assay is described as follows: RNASE4 knockdown, colony formation in soft agar. Particulars: exogenous RNASE4 1 μg/ml, 14 days. From the text: FIGS. 15A-D. RNASE4 knockdown inhibits LNCaP cell proliferation in vitro and colony formation in soft agar. (A) Immunoblot analysis of RNASE4 in LNCaP cells stably transfected with shControl, shRNASE4-1, and shRNASE4-2. (B) qRT-PCR analysis of RNASE4 mRNA normalized to GAPDH in LNCaP cells stably transfected with shControl, shRNASE4-1, and shRNASE4-2. (C) Effect of RNASE4 knockdown on LNCaP cell proliferation. Cell numbers were counted by Coulter counter. Exogenous RNASE4, when presented, was at the concentration of 1 μg/ml. Data shown are from a representative experiment in triplicates of 3 independent experiments. (D) Effects of RNASE4 knockdown on colonies formation and growth of LNCaP cells in soft agar. The same numbers of control and RNASE4 knockdown cells were seeded in soft agar, and grown in the absence or presence of 1 μg/ml of RNASE4 for 14 days. Colonies were counted and size measured on a Nikon Eclipse ti microscope. Top panels, representative images of colonies; scale bars=100 μm. Bottom panels, quantification of LMCaP cell colonies and sizes in soft agar. Data shown are means±SEM of five randomly selected fields per dish from a representative experiment. **P≤0.01 and ***P≤0.001, by two-tailed Student's t test.
Lentiviral mediated shRNA system (pGIPZ, Open Biosystems) was used to generate control and RNASE4 knockdown cell lines. […]

B1: RNASE4: recombinant human RNASE4 protein from pET11 expression in E. coli, purified by reversed-phase HPLC; added exogenously (protein, UniProt P34096 29-147, looked up)
Ribonuclease 4: QDGMYQRFLRQHVHPEETGGSDRYCNLMMQRRKMTLYHCKRFNTFIHEDIWNIRSICSTTNIQCKNGKMNCHEGVVKVTDCRDTGSSRAPNCRYRAIASTRRVVIACEGNPQVPVHFDG
With B1, the cell proliferation entry in the assay with PC-3 cells and in the assay with DU145 cells was “stimulates” each time. Also, the “rescue of the effect of RNASE4 knockdown on colony formation” value in the assay with LNCaP cells is “able to rescue”.
